Assay results as given in the supplement of paper PMC10567573.

B1: KCNAB2 (parent)
chain: IPPYSRASLKGYQWLKDKILSEEG

Variants of: B1
Test: protein stability index of a GFP-peptide fusion (GPS, HEK-293T) (PSI 1-6); higher = more stable
Conditions: c terminus: a fixed tail appended
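Note: lentivirally expressed fusions sorted by FACS into six bins by GFP to DsRed ratio, PSI derived from sequencing read proportions per bin multiplied by bin number.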

Variant | protein stability index
IPPYSRASLTGYQWLKDKILSEEG | 3.38
IPPYSRASLVGYQWLKDKILSEEG | 2.14
IPPYSRASLWGYQWLKDKILSEEG | 2.29
IPPYSRASLYGYQWLKDKILSEEG | 2.84
IPPYSRASLKAYQWLKDKILSEEG | 1.8
IPPYSRASLKCYQWLKDKILSEEG | 1.92
IPPYSRASLKDYQWLKDKILSEEG | 2.89
IPPYSRASLKEYQWLKDKILSEEG | 3.51
IPPYSRASLKFYQWLKDKILSEEG | 3.33
IPPYSRASLKHYQWLKDKILSEEG | 2.19
IPPYSRASLKIYQWLKDKILSEEG | 2.37
IPPYSRASLKKYQWLKDKILSEEG | 1.78
IPPYSRASLKMYQWLKDKILSEEG | 2.08
IPPYSRASLKNYQWLKDKILSEEG | 2.68
IPPYSRASLKPYQWLKDKILSEEG | 2.46
IPPYSRASLKQYQWLKDKILSEEG | 2.96
IPPYSRASLKRYQWLKDKILSEEG | 2.66
IPPYSRASLKSYQWLKDKILSEEG | 1.64
IPPYSRASLKTYQWLKDKILSEEG | 2.1
IPPYSRASLKWYQWLKDKILSEEG | 3.38
IPPYSRASLKYYQWLKDKILSEEG | 2.91
IPPYSRASLKGAQWLKDKILSEEG | 3.34
IPPYSRASLKGCQWLKDKILSEEG | 3.04
IPPYSRASLKGDQWLKDKILSEEG | 3.97

Variant | protein stability index
IPPYSRASLKGEQWLKDKILSEEG | 3.87
IPPYSRASLKGFQWLKDKILSEEG | 2.84
IPPYSRASLKGGQWLKDKILSEEG | 3.5
IPPYSRASLKGHQWLKDKILSEEG | 3.62
IPPYSRASLKGIQWLKDKILSEEG | 2.45
IPPYSRASLKGKQWLKDKILSEEG | 4.35
IPPYSRASLKGLQWLKDKILSEEG | 2.51
IPPYSRASLKGNQWLKDKILSEEG | 3.13
IPPYSRASLKGPQWLKDKILSEEG | 3.17
IPPYSRASLKGQQWLKDKILSEEG | 3.18
IPPYSRASLKGRQWLKDKILSEEG | 3.44
IPPYSRASLKGSQWLKDKILSEEG | 4.02
IPPYSRASLKGTQWLKDKILSEEG | 3.81
IPPYSRASLKGVQWLKDKILSEEG | 2.71
IPPYSRASLKGWQWLKDKILSEEG | 1.32
IPPYSRASLKGYAWLKDKILSEEG | 1.82
IPPYSRASLKGYCWLKDKILSEEG | 1.84
IPPYSRASLKGYDWLKDKILSEEG | 3.63
IPPYSRASLKGYEWLKDKILSEEG | 2.34
IPPYSRASLKGYFWLKDKILSEEG | 2.6
IPPYSRASLKGYGWLKDKILSEEG | 1.93
IPPYSRASLKGYHWLKDKILSEEG | 2.46
IPPYSRASLKGYKWLKDKILSEEG | 1.74
IPPYSRASLKGYLWLKDKILSEEG | 1.16

Variant | protein stability index
IPPYSRASLKGYNWLKDKILSEEG | 2.32
IPPYSRASLKGYPWLKDKILSEEG | 2.03
IPPYSRASLKGYRWLKDKILSEEG | 2.49
IPPYSRASLKGYSWLKDKILSEEG | 2.95
IPPYSRASLKGYTWLKDKILSEEG | 2.55
IPPYSRASLKGYVWLKDKILSEEG | 2.08
IPPYSRASLKGYYWLKDKILSEEG | 1.53
IPPYSRASLKGYQALKDKILSEEG | 3.76
IPPYSRASLKGYQDLKDKILSEEG | 3.73
IPPYSRASLKGYQELKDKILSEEG | 3.59
IPPYSRASLKGYQFLKDKILSEEG | 4.47
IPPYSRASLKGYQGLKDKILSEEG | 4.07
IPPYSRASLKGYQHLKDKILSEEG | 3.57
IPPYSRASLKGYQILKDKILSEEG | 3.45
IPPYSRASLKGYQKLKDKILSEEG | 3.65
IPPYSRASLKGYQLLKDKILSEEG | 3.57
IPPYSRASLKGYQMLKDKILSEEG | 3.66
IPPYSRASLKGYQNLKDKILSEEG | 3.78
IPPYSRASLKGYQPLKDKILSEEG | 3.97
IPPYSRASLKGYQQLKDKILSEEG | 3.04
IPPYSRASLKGYQRLKDKILSEEG | 3.73
IPPYSRASLKGYQSLKDKILSEEG | 2.95
IPPYSRASLKGYQTLKDKILSEEG | 3.3
IPPYSRASLKGYQVLKDKILSEEG | 3.6

Variant | protein stability index
IPPYSRASLKGYQYLKDKILSEEG | 3.32
IPPYSRASLKGYQWAKDKILSEEG | 3.71
IPPYSRASLKGYQWCKDKILSEEG | 3.47
IPPYSRASLKGYQWDKDKILSEEG | 4.13
IPPYSRASLKGYQWEKDKILSEEG | 3.19
IPPYSRASLKGYQWFKDKILSEEG | 2.59
IPPYSRASLKGYQWGKDKILSEEG | 3.2
IPPYSRASLKGYQWHKDKILSEEG | 3.73
IPPYSRASLKGYQWIKDKILSEEG | 2.11
IPPYSRASLKGYQWKKDKILSEEG | 3.22
IPPYSRASLKGYQWMKDKILSEEG | 2.47
IPPYSRASLKGYQWNKDKILSEEG | 3.64
IPPYSRASLKGYQWPKDKILSEEG | 3.61
IPPYSRASLKGYQWQKDKILSEEG | 3.52
IPPYSRASLKGYQWRKDKILSEEG | 2.37
IPPYSRASLKGYQWSKDKILSEEG | 3.53
IPPYSRASLKGYQWTKDKILSEEG | 3.08
IPPYSRASLKGYQWVKDKILSEEG | 2.91
IPPYSRASLKGYQWWKDKILSEEG | 2.18
IPPYSRASLKGYQWYKDKILSEEG | 2.19
IPPYSRASLKGYQWLADKILSEEG | 1.82
IPPYSRASLKGYQWLCDKILSEEG | 3.16
IPPYSRASLKGYQWLDDKILSEEG | 3.77
IPPYSRASLKGYQWLEDKILSEEG | 2.19

Variant | protein stability index
IPPYSRASLKGYQWLGDKILSEEG | 3.26
IPPYSRASLKGYQWLHDKILSEEG | 1.53
IPPYSRASLKGYQWLIDKILSEEG | 2.49
IPPYSRASLKGYQWLLDKILSEEG | 1.02
IPPYSRASLKGYQWLMDKILSEEG | 1.71
IPPYSRASLKGYQWLNDKILSEEG | 3.29
IPPYSRASLKGYQWLPDKILSEEG | 3.39
IPPYSRASLKGYQWLQDKILSEEG | 2.31
IPPYSRASLKGYQWLRDKILSEEG | 3.2
IPPYSRASLKGYQWLSDKILSEEG | 2.38
IPPYSRASLKGYQWLTDKILSEEG | 2.74
IPPYSRASLKGYQWLVDKILSEEG | 2.08
IPPYSRASLKGYQWLWDKILSEEG | 2.29
IPPYSRASLKGYQWLYDKILSEEG | 1.84
IPPYSRASLKGYQWLKAKILSEEG | 2.65
IPPYSRASLKGYQWLKCKILSEEG | 1.3
IPPYSRASLKGYQWLKEKILSEEG | 1.26
IPPYSRASLKGYQWLKFKILSEEG | 2.25
IPPYSRASLKGYQWLKGKILSEEG | 2.03
IPPYSRASLKGYQWLKHKILSEEG | 2.69
IPPYSRASLKGYQWLKIKILSEEG | 1.69
IPPYSRASLKGYQWLKKKILSEEG | 2.04
IPPYSRASLKGYQWLKLKILSEEG | 1.93
IPPYSRASLKGYQWLKMKILSEEG | 1.57

Variant | protein stability index
IPPYSRASLKGYQWLKNKILSEEG | 2.39
IPPYSRASLKGYQWLKPKILSEEG | 2.46
IPPYSRASLKGYQWLKQKILSEEG | 2.18
IPPYSRASLKGYQWLKRKILSEEG | 1.91
IPPYSRASLKGYQWLKSKILSEEG | 1.6
IPPYSRASLKGYQWLKTKILSEEG | 1.68
IPPYSRASLKGYQWLKVKILSEEG | 2.51
IPPYSRASLKGYQWLKWKILSEEG | 1.72
IPPYSRASLKGYQWLKYKILSEEG | 1.8
IPPYSRASLKGYQWLKDAILSEEG | 2.63
IPPYSRASLKGYQWLKDCILSEEG | 2.51
IPPYSRASLKGYQWLKDDILSEEG | 2.77
IPPYSRASLKGYQWLKDEILSEEG | 2.95
IPPYSRASLKGYQWLKDFILSEEG | 1.96
IPPYSRASLKGYQWLKDGILSEEG | 2.95
IPPYSRASLKGYQWLKDHILSEEG | 1.98
IPPYSRASLKGYQWLKDIILSEEG | 1.71
IPPYSRASLKGYQWLKDLILSEEG | 1.6
IPPYSRASLKGYQWLKDMILSEEG | 2.78
IPPYSRASLKGYQWLKDNILSEEG | 3.29
IPPYSRASLKGYQWLKDPILSEEG | 2.83
IPPYSRASLKGYQWLKDQILSEEG | 3.23
IPPYSRASLKGYQWLKDRILSEEG | 1.02
IPPYSRASLKGYQWLKDSILSEEG | 3.17

Variant | protein stability index
IPPYSRASLKGYQWLKDTILSEEG | 2.11
IPPYSRASLKGYQWLKDVILSEEG | 3.75
IPPYSRASLKGYQWLKDWILSEEG | 1.39
IPPYSRASLKGYQWLKDYILSEEG | 2.05
IPPYSRASLKGYQWLKDKALSEEG | 2.57
IPPYSRASLKGYQWLKDKDLSEEG | 3.73
IPPYSRASLKGYQWLKDKELSEEG | 4
IPPYSRASLKGYQWLKDKFLSEEG | 2.21
IPPYSRASLKGYQWLKDKHLSEEG | 2.98
IPPYSRASLKGYQWLKDKLLSEEG | 2.86
IPPYSRASLKGYQWLKDKMLSEEG | 3.53
IPPYSRASLKGYQWLKDKNLSEEG | 2.86
IPPYSRASLKGYQWLKDKPLSEEG | 3.8
IPPYSRASLKGYQWLKDKQLSEEG | 2.12
IPPYSRASLKGYQWLKDKRLSEEG | 3.32
IPPYSRASLKGYQWLKDKSLSEEG | 3.16
IPPYSRASLKGYQWLKDKTLSEEG | 3.4
IPPYSRASLKGYQWLKDKVLSEEG | 3.17
IPPYSRASLKGYQWLKDKYLSEEG | 2.58
IPPYSRASLKGYQWLKDKIASEEG | 3.71
IPPYSRASLKGYQWLKDKICSEEG | 2.63
IPPYSRASLKGYQWLKDKIDSEEG | 3.91
IPPYSRASLKGYQWLKDKIESEEG | 3.75
IPPYSRASLKGYQWLKDKIFSEEG | 1.98

Variant | protein stability index
IPPYSRASLKGYQWLKDKIGSEEG | 2.19
IPPYSRASLKGYQWLKDKIHSEEG | 2.16
IPPYSRASLKGYQWLKDKIISEEG | 2.29
IPPYSRASLKGYQWLKDKIKSEEG | 2.81
IPPYSRASLKGYQWLKDKIMSEEG | 2.47
IPPYSRASLKGYQWLKDKINSEEG | 3.06
IPPYSRASLKGYQWLKDKIPSEEG | 3.27
IPPYSRASLKGYQWLKDKIQSEEG | 2.8
IPPYSRASLKGYQWLKDKISSEEG | 2.92
IPPYSRASLKGYQWLKDKITSEEG | 3.54
IPPYSRASLKGYQWLKDKIVSEEG | 2
IPPYSRASLKGYQWLKDKIWSEEG | 2.54
IPPYSRASLKGYQWLKDKIYSEEG | 2.51
IPPYSRASLKGYQWLKDKILAEEG | 2.8
IPPYSRASLKGYQWLKDKILCEEG | 2.42
IPPYSRASLKGYQWLKDKILDEEG | 3.56
IPPYSRASLKGYQWLKDKILFEEG | 2.28
IPPYSRASLKGYQWLKDKILGEEG | 1.86
IPPYSRASLKGYQWLKDKILHEEG | 2.12
IPPYSRASLKGYQWLKDKILIEEG | 2.3
